Values belong to the binder of their own block, whether it stands above or below them.
B3: B55 (subunit of the PP2A:B55 holoenzyme) (natural protein, UniProt P63151 1-447, looked up)
chain: MAGAGGGNDIQWCFSQVKGAVDDDVAEADIISTVEFNHSGELLATGDKGGRVVIFQQEQENKIQSHSRGEYNVYSTFQSHEPEFDYLKSLEIEEKINKIRWLPQKNAAQFLLSTNDKTIKLWKISERDKRPEGYNLKEEDGRYRDPTTVTTLRVPVFRPMDLMVEASPRRIFANAHTYHINSISINSDYETYLSADDLRINLWHLEITDRSFNIVDIKPANMEELTEVITAAEFHPNSCNTFVYSSSKGTIRLCDMRASALCDRHSKLFEEPEDPSNRSFFSEIISSISDVKFSHSGRYMMTRDYLSVKIWDLNMENRPVETYQVHEYLRSKLCSLYENDCIFDKFECCWNGSDSVVMTGSYNNFFRMFDRNTKRDITLEASRENNKPRTVLKPRKVCASGKRKKDEISVDSLDFNKKILHTAWHPKENIIAVATTNNLYIFQDKVN
notes: B55 regulatory subunit, printed as full-length B55 1–477; The B55 chain of m1, written alone for the contacts seen in the cryo-EM structures; also called B55WT; source: Expi293F, purified as part of PP2A:B55; not shown: GFP, N-terminal, cleaved
B5: tpS62tpS104ARPP19 (ARPP19 thiophosphorylated by MASTL on Ser62 and Ser104) (natural protein, UniProt P56211 1-112, looked up)
chain: MSAEVPEAASAEEQKEMEDKVTSPEKAEEAKLKARYPHLGQKPGGSDFLRKRLQKGQKYFDSGDYNMAKAKMKNKQLPTAAPDKTEVTGDHIPTPQDLPQRKPSLVASKLAG
modifications: thiophosphoserine at 62 and 104

Key:
[1] = molecular target: T1, cAMP regulated phosphoprotein 19 (ARPP19), unphosphorylated (UniProt P56211 1-112); assay: NMR titration; 2D 1H,15N HSQC of 15N-labelled FAM122A or ARPP19 (2–6 μM) with an excess of unlabelled PP2A:B55 or B55LL; peak intensity loss; 283 K; NMR buffer pH 6.3, 150 mM NaCl; conditions: both partners purified
T1 construct: 15N-labelled in the NMR experiments; source: E. coli BL21 (DE3), purified (HisTrap, TEV cleavage, Ni-NTA, heat, SEC); not shown: His6, N-terminal, cleaved; MBP, N-terminal, cleaved
T1 sequence (looked up): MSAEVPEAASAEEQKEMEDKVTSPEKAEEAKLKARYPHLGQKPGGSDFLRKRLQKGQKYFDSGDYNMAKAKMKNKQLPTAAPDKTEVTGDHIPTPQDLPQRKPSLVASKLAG

[2] = molecular target: B5; assay: as above; conditions: both partners purified
[3] = molecular target: T2, ARPP19(S10C) labelled with Alexa Fluor 488 (ARPP19-tracer) (UniProt P56211 1-112, S10C, Alexa Fluor 488 C5 Maleimide label); assay: fluorescence polarisation; PP2A:B55 (or B55LL) serially diluted into 0.1 nM Alexa Fluor 488 tracer (FAM122AID-tracer or ARPP19-tracer); 10 mM HEPES pH 7.0, 150 mM NaCl, 0.5 mM TCEP, 0.01% Triton X-100, 0.1 mg/ml BSA; 30 min at room temperature; conditions: both partners purified
T2 construct: ARPP19, S10C; source: E. coli BL21 (DE3), purified; labelled, recovered by analytical SEC; not shown: His6, N-terminal, cleaved; MBP, N-terminal, cleaved
T2 sequence (looked up): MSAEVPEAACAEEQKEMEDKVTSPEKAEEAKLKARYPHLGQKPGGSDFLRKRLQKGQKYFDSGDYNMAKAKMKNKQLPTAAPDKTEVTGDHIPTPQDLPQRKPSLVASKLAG

[4] = molecular target: B3; assay: cryo-EM structure; purified PP2A:B55 incubated with FAM122AID or tpARPP19 at a 1.5 molar ratio; CHAPSO added before vitrification; conditions: both partners purified
[5] = molecular target: T3, PP2Aa_(9–589) (scaffolding subunit of the PP2A:B55 holoenzyme) (UniProt P30153 9-589); assay: as above; conditions: both partners purified
T3 construct: PP2Aa (PP2A scaffolding A subunit), residues 9-589; The PP2Aa chain of m1, written alone for the contacts seen in the cryo-EM structures; source: E. coli BL21 (DE3), purified (HisTrap, TEV cleavage, Ni-NTA, QTrap, SEC); not shown: His6, N-terminal, cleaved; MBP, N-terminal, cleaved

YFP–ARPP19 F48A = molecular target: T4, YFP–ARPP19 F48A (UniProt P56211 1-112, F48A); assay: co-IP; YFP–ARPP19 variants transiently transfected into HeLa cells, precipitated with GFP-Trap beads at 4 °C in 50 mM Tris-HCl pH 7.5, 50 mM NaCl, 1 mM EDTA, 1 mM DTT, 0.1% NP40; western blot for B55α and PP2Ac; conditions: partners not purified
T4 construct: ARPP19; source: HeLa, transiently transfected, in lysate
T4 sequence (looked up): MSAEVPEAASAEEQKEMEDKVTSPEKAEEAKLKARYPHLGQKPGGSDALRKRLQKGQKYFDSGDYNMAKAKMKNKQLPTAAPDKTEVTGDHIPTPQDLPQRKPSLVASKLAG

YFP–ARPP19 L53A = molecular target: T5, YFP–ARPP19 L53A (UniProt P56211 1-112, L53A); assay: as above; conditions: partners not purified
T5 construct: ARPP19; source: HeLa, transiently transfected, in lysate
T5 sequence (looked up): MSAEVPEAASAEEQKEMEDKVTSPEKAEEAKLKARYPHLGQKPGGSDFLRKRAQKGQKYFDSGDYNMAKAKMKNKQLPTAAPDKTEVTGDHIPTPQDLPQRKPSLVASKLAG

YFP–ARPP19 L49A = molecular target: T6, YFP–ARPP19 L49A (UniProt P56211 1-112, L49A); assay: as above; conditions: partners not purified
T6 construct: ARPP19; source: HeLa, transiently transfected, in lysate
T6 sequence (looked up): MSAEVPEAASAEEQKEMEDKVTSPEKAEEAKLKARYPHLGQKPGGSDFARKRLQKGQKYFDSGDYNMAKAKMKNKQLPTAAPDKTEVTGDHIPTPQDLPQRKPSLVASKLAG

YFP–ARPP19 R50A = molecular target: T7, YFP–ARPP19 R50A (UniProt P56211 1-112, R50A); assay: as above; conditions: partners not purified
T7 construct: ARPP19; source: HeLa, transiently transfected, in lysate
T7 sequence (looked up): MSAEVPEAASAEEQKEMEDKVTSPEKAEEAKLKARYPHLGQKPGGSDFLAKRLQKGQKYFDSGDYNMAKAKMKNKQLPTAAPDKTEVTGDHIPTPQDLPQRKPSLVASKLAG

YFP–ARPP19 R52A = molecular target: T8, YFP–ARPP19 R52A (UniProt P56211 1-112, R52A); assay: as above; conditions: partners not purified
T8 construct: ARPP19; source: HeLa, transiently transfected, in lysate
T8 sequence (looked up): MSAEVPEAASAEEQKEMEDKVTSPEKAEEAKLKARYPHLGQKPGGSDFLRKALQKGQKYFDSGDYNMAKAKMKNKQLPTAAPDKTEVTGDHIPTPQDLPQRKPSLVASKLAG

YFP–ARPP19 K55A = molecular target: T9, YFP–ARPP19 K55A (UniProt P56211 1-112, K55A); assay: as above; conditions: partners not purified
T9 construct: ARPP19; source: HeLa, transiently transfected, in lysate
T9 sequence (looked up): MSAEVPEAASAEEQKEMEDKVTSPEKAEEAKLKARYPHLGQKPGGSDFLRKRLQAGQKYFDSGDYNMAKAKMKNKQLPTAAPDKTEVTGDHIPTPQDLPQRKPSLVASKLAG

[6] = molecular target: PP2A:B55 holoenzyme (PP2Aa, B55, PP2Ac) (UniProt P30153 9-589; P63151 1-447; P67775 1-309, C-terminal residue fully methylated (mLeu309)); assay: cell-based or functional assay
PP2A:B55 holoenzyme (PP2Aa, B55, PP2Ac), sequence (P30153 9-589, chain 1 of 2): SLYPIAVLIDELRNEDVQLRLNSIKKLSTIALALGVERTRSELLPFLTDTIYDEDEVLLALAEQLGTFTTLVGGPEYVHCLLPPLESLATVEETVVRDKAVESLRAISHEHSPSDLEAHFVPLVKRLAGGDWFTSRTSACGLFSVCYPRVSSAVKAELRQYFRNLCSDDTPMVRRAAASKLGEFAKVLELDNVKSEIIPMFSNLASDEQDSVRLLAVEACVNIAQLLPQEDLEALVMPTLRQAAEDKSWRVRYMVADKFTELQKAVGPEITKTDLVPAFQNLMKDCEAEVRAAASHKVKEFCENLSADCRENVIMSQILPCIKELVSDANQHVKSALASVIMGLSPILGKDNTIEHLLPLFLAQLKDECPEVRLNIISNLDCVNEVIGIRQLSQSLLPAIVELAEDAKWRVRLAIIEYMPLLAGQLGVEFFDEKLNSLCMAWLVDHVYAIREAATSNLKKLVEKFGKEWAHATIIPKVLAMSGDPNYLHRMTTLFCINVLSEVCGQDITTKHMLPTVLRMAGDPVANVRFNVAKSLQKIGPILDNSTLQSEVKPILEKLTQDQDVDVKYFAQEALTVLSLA
PP2A:B55 holoenzyme (PP2Aa, B55, PP2Ac), sequence (P67775 whole entry, chain 3 of 2): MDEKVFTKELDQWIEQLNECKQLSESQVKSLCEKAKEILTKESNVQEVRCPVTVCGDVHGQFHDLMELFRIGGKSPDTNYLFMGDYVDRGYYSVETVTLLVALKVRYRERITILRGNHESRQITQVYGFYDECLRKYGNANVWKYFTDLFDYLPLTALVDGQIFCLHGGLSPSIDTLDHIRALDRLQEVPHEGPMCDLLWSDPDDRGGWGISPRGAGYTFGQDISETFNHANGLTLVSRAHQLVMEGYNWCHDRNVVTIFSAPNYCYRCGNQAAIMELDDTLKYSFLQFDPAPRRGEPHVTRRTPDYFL

T3 sequence (P30153 9-589): as the sequence (P30153 9-589, chain 1 of 2) above

B2: tpS62ARPP19_(S104A) (singly thiophosphorylated ARPP19) (natural protein, UniProt P56211 1-112, looked up)
chain: MSAEVPEAASAEEQKEMEDKVTSPEKAEEAKLKARYPHLGQKPGGSDFLRKRLQKGQKYFDSGDYNMAKAKMKNKQLPTAAPDKTEVTGDHIPTPQDLPQRKPALVASKLAG
modifications: thiophosphoserine at 62
notes: also called tpARPP19; S62 tpARPP19_(S104A); source: E. coli BL21 (DE3), purified; thiophosphorylated with MASTL kinase and ATP-γ-S; not shown: His6, N-terminal, cleaved; MBP, N-terminal, cleaved
binding result [4]: binds

Binder: B3
binding result [5]: binds

B4: B55, endogenous in HeLa cells (natural protein, human (endogenous in HeLa), UniProt P63151 1-447, looked up)
chain: MAGAGGGNDIQWCFSQVKGAVDDDVAEADIISTVEFNHSGELLATGDKGGRVVIFQQEQENKIQSHSRGEYNVYSTFQSHEPEFDYLKSLEIEEKINKIRWLPQKNAAQFLLSTNDKTIKLWKISERDKRPEGYNLKEEDGRYRDPTTVTTLRVPVFRPMDLMVEASPRRIFANAHTYHINSISINSDYETYLSADDLRINLWHLEITDRSFNIVDIKPANMEELTEVITAAEFHPNSCNTFVYSSSKGTIRLCDMRASALCDRHSKLFEEPEDPSNRSFFSEIISSISDVKFSHSGRYMMTRDYLSVKIWDLNMENRPVETYQVHEYLRSKLCSLYENDCIFDKFECCWNGSDSVVMTGSYNNFFRMFDRNTKRDITLEASRENNKPRTVLKPRKVCASGKRKKDEISVDSLDFNKKILHTAWHPKENIIAVATTNNLYIFQDKVN
notes: B55 detected with an antibody to B55α; also called B55α; source: endogenous, HeLa lysate
binding, percent of wild type (YFP–ARPP19 F48A): ~50%
binding, percent of wild type (YFP–ARPP19 L53A): < 25%
binding, percent of wild type (YFP–ARPP19 L49A): ~75%
binding, percent of wild type (YFP–ARPP19 R50A): ~50%
binding, percent of wild type (YFP–ARPP19 R52A): < 25%
binding, percent of wild type (YFP–ARPP19 K55A): ~75%

Binder: B5
potency of PP2A:B55 inhibition (DiFMUP) against that of FAM122A [6]: ~250 fold

Now from value to binder:

binding result [1]: binds
binding result [2]: binds
binding result [3]: binds
B1: B55 loopless (B55LL) (domain or fragment)
chain: MAGAGGGNDIQWCFSQVKGAVDDDVAEADIISTVEFNHSGELLATGDKGGRVVIFQQEQENKIQSHSRGEYNVYSTFQSHEPEFDYLKSLEIEEKINKIRWLPQKNAAQFLLSTNDKTIKLWKISNGEASPRRIFANAHTYHINSISINSDYETYLSADDLRINLWHLEITDRSFNIVDIKPANMEELTEVITAAEFHPNSCNTFVYSSSKGTIRLCDMRASALCDRHSKLFEEPEDPSNRSFFSEIISSISDVKFSHSGRYMMTRDYLSVKIWDLNMENRPVETYQVHEYLRSKLCSLYENDCIFDKFECCWNGSDSVVMTGSYNNFFRMFDRNTKRDITLEASRENNKPRTVLKPRKVCASGKRKKDEISVDSLDFNKKILHTAWHPKENIIAVATTNNLYIFQDKVN
notes: linker that replaces B55 residues 126–164; source: Expi293F, purified (GFP-nanobody beads, TEV on-column cleavage, QTrap, SEC); not shown: GFP, N-terminal, cleaved

IC50 of PP2A:B55 inhibition (DiFMUP), fold increase against wild type [6]: 48 fold
B6: FAM122AID I88A/K89A/S120C (domain or fragment, UniProt Q96E09 29-120, looked up)
chain: GGGLRRSNSAPLIHGLSDTSPVFQAEAPSARRNSTTFPSRHGLLLPASPVRMHSSRLHQAAQEEGMDLINRETVHEREVQTAMQISHSWEEC
modifications: Alexa Fluor 488 C5 Maleimide label (fluorescence polarization assay)

IC50 of PP2A:B55 inhibition (DiFMUP), fold increase against wild type [6]: 38 fold
B7: FAM122AID R84A/L85A/S120C (domain or fragment, UniProt Q96E09 29-120, looked up)
chain: GGGLRRSNSAPLIHGLSDTSPVFQAEAPSARRNSTTFPSRHGLLLPASPVRMHSSAAHQIKQEEGMDLINRETVHEREVQTAMQISHSWEEC
modifications: Alexa Fluor 488 C5 Maleimide label (fluorescence polarization assay)

— publication PMC10765524, “Cryo-EM structures of PP2A:B55–FAM122A and PP2A:B55–ARPP19” (Nature, 2023)
